Assay results as given in US20150267232A1, “IN VIVO AND IN VITRO CARBENE INSERTION AND NITRENE TRANSFER REACTIONS CATALYZED BY HEME ENZYMES” (California Institute of Technology, priority 2012, published 2015).
Where a chain is given by its changes, count along the chain named. In names and notes the source's numbering stands.

Columns and labels:
[1] = Intramolecular carbene C—H insertion, substrate 4.1a; format: biochemical; conditions: 10 mM 4.1a, 10 uM P450, 10 mM Na2S2O4; product 4.2a
Experimental: Yield of product 4.22b was established after calibration with phenethyl alcohol as an internal standard. The reaction is not catalyzed by the WT-BM3 heme domain or hemin at 5% catalyst loading.
A representative procedure for P450-catalyzed C—H insertion is as follows: A vial containing WT-AxD (20 μL, 200 μM) was sealed with a teflon cap and the headspace of this vial was purged with argon for 5 min. Concurrently, a solution of sodium dithionite (11 mM in phosphate buffer pH=8) was degassed for a minimum of 5 min and 360 μL of this solution was transferred to the vial containing protein. The gas lines were disconnected from the vials. The substrate 4.1a or 4.1b was then added as a solution (20 μL, 200 mM). Final concentrations of all components were: 10 uM enzyme, 10 mM substrate, and 10 mM dithionite. […]
The mixture was extracted with 1 mL cyclohexane and analyzed by GC-MS or GC. GC-MS was performed on a Shimadzu TQ8030 GC-MS with ion count detector and J&W HP-5 column (30 m×0.32 mm, 0.25 μm film) using the following method: 90° C. (hold 2 min), 90-190° C. (20° C./min), and 190-230 (40° C./min)

[2] = Small-scale anaerobic C—H amination with purified enzymes, azide 1; format: biochemical
Experimental: Activities are presented in TTN. […] Yields and enantioselectivies determined by HPLC analysis. * (S−R)/(S+R). nd=not determined.
Enzymes used as purified catalysts were expressed as previously described (Lewis, J. C. et al., Proc. Natl. Acad. Sci. U.S.A. 106, 16550-16555 (2009)), and were purified by anion-exchange chromatography (for holoenzymes) or Ni-NTA chromatography (for isolated heme domains). Concentrations of P450 or P411 enzymes were determined as previously reported (Omura, T. & Sato, R., J. Biol. Chem. 239, 2370-2378 (1964); Vatsis, K. P. et al., J. Inorg. Biochem. 91, 542-553 (2002)). Small-scale reactions (400 μL) were conducted in 2 mL crimp vials containing degassed buffer (0.1 M potassium phosphate pH 8.0), enzyme (0.1-0.5% catalyst loading) and oxygen depletion system (10× stock solution containing 14,000 U/mL catalase, 1,000 U/mL glucose oxidase dissolved in 0.1 M KPi pH 8.0). Enzyme (P450 or P411) solution and oxygen depletion mixture were added to the vial with a small stir bar before crimp-sealing. […] Reactions were stirred at room temperature for 24 h under positive argon pressure.
Small-scale reactions (400 μL) were conducted in 2 mL crimp vials (Agilent Technologies, San Diego, Calif.) containing buffer (0.1 M potassium phosphate pH 8.0), enzyme (0.1-0.5% catalyst loading) and oxygen depletion system (10× stock solution containing 14,000 U/mL catalase, 1,000 U/mL glucose oxidase dissolved in 0.1 M KPi pH 8.0). Enzyme (P450 or P411) solution and oxygen depletion mixture were added to the vial with a small stir bar before crimp-sealing. […] In the meantime, the headspace of the sealed 2 mL reaction vial with the P450 solution was made anaerobic by flushing argon over the protein solution (with no bubbling). The buffer/reductant/glucose solution (270 μL) was syringed into the reaction vial with continuous argon purge of the vial headspace. An arylsulfonyl azide solution in DMSO (10 μL, 80 mM) was added to the reaction vial via a glass syringe, and the reaction was left stirring for 24 h at room temperature under positive argon pressure. […] Reactions were quenched by adding 30 μL 3 M HCl under argon. To the vials were then added acetonitrile (430 uL) and internal standard (o-toluenesulfonamide 10 mM in 50% acetonitrile 50% water, 1 mM final concentration). This mixture was then transferred to a microcentrifuge tube, and centrifuged at 17,000×g for 10 minutes. A portion (20 μL) of the supernatant was then analyzed by HPLC. For LC-MS analysis, the quenched reaction mixture was extracted twice with ethyl acetate (2×350 μL), dried under a light argon stream and resuspended in 50% water-acetonitrile (100 μL). For chiral HPLC the reactions were extracted as above with ethyl acetate, dried and resuspended in DMSO (100 μL) and then C18 purified as described above. The C18 purified material was dried, and resuspended in acetonitrile, and then injected onto the chiral HPLC system for analysis. Sultam formation was quantified comparison of integrated peak areas of internal standard and sultam at 220 nm to a calibration curve made using synthetically produced sultam and internal standard.
Purified enzymes were screened for activity in small scale reactions (400 μL) under anaerobic conditions as described above. Reactions were carried out using 0.5% mol of enzyme (10 μM) with respect to the triethylsulfonyl azide substrate 1 (2 mM). Standard reaction conditions described above were employed. Diethyl benzosultam product 3 (FIG. 18) was analyzed and quantified by reversed-phase HPLC (see above).
Small-scale reactions (400 μL total volume) were set up and worked up. Control reactions were performed with both the holoenzyme (BM3 with covalently linked reductase domain) and the isolated heme domain. […] Reactions of the complete system with heme domain (CS heme) included 2 mM Na2S2O4 rather than NADPH unless otherwise indicated in the table. […]

[3] = Whole-cell C—H amination of azide 1; format: cell-based, E. coli BL21(DE3); conditions: intact E. coli cells
Experimental: Reaction conditions were as follows: 2 mM azide 1, 25 mM glucose, E. coli BL21(DE3) cells in M9-N minimal medium (OD600=30), 2.5% DMSO, oxygen depletion system (100 U ml^−1 glucose oxidase, 1400 U ml^−1 catalase) reacted for 24 hours under anaerobic conditions at 298 K. Yields determined by HPLC quantification.
(§1) Whole cell reactions used E. coli BL21(DE3) cells containing P450 or P411 catalysts, which were expressed and prepared as described elsewhere (Coelho, P. S. et al., Highly efficient carbene transfer to olefins catalyzed in vivo. Submitted (2013)). Following expression, cells were resuspended to an OD600 of 30 in M9 salts lacking NH4Cl (M9-N), and then degassed by sparging with argon in a sealed 6 mL crimp vial for at least 0.5 h. Separately, glucose (250 mM dissolved in 1×M9-N, 40 μL, or multiples thereof) was degassed by sparging with argon for at least five minutes. The oxygen quenching mixture was added to sealed 2 mL crimp vials containing stir bars and the headspace of the vials was purged with argon for five minutes at which time glucose, and then cells were added by syringe. Substrate (80 mM arylsulfonyl azide, 10 uL in DMSO) was added via syringe, and the reactions were stirred at room temperature for 24 h under positive argon pressure.
as §1, with “E.” for “Whole cell reactions used E.”, “catalysts” for “catalysts, which”, “Coelho,” for “(Coelho,”, “μL” for “uL”, “pressure. Reactions were quenched in a manner identical to reactions containing purified enzymes as described above. For chiral HPLC, the reactions were extracted and purified in an identical manner as for reactions that employed purified enzymes. Lyophilized intact cells containing sucrose as a cryoprotectant were prepared as described elsewhere (Coelho, P. S. et al., Highly efficient carbene transfer to olefins catalyzed in vivo. Submitted (2013)). The resulting cell powder, containing expressed ABC-CIS (26 mg) were added along with a stir bar to a 2 mL crimp vial and then sealed. The headspace of the vial was degassed, oxygen quenching system (40 μL) was added via syringe, followed by degassed glucose (250 mM, 40 μL), M9-N (310 μL), and finally substrate (80 mM 1, 10 μL). Lyophilized cell reactions were stirred for 24 h at room temperature, then quenched and analyzed as described above. […]” for “pressure.”
The preparative reaction was scaled up proportionally from small-scale reactions. E. coli BL21 cells containing ABC-CIS (OD600 30, 90 mL in M9-N) were sparged with argon for 45 minutes in a round bottom flask (250 mL) containing a stir bar. Separately, glucose solution (250 mM, 11.6 mL) was sparged with argon in a conical flask. The oxygen quenching mixture (10×, 11.6 mL) was degassed in a conical flask that was placed under high vacuum until slight foaming occurred (1-2 s) and then back-filled with argon; this sequence was repeated several times. Sparged glucose solution was then added to the anaerobic cell suspension via syringe, followed by the oxygen quenching system. Finally, substrate 1 (80 mM, 2.9 mL DMSO) was added dropwise via syringe, and the reaction was stirred for 24 h at room temperature. To quench the reaction, dilute HCl (3 M, 8.7 mL) and acetonitrile (125 mL) were added. […]

[4] = OD600=30, 2 mM azide 1, 24 hours, anaerobic

B1: WT-AxH: WT heme domain + C400H (protein)
chain: TIKEMPQPKTFGELKNLPLLNTDKPVQALMKIADELGEIFKFEAPGRVTRYLSSQRLIKEACDESRFDKNLSQALKFVRDFAGDGLFTSWTHEKNWKKAHNILLPSFSQQAMKGYHAMMVDIAVQLVQKWERLNADEHIEVPEDMTRLTLDTIGLCGFNYRFNSFYRDQPHPFITSMVRALDEAMNKLQRANPDDPAYDENKRQFQEDIKVMNDLVDKIIADRKASGEQSDDLLTHMLNGKDPETGEPLDDENIRYQIITFLIAGHETTSGLLSFALYFLVKNPHVLQKAAEEAARVLVDPVPSYKQVKQLKYVGMVLNEALRLWPTAPAFSLYAKEDTVLGGEYPLEKGDELMVLIPQLHRDKTIWGDDVEEFRPERFENPSAIPQHAFKPFGNGQRAHIGQQFALHEATLVLGMMLKHFDFEDHTNYELDIKETLSLKPKGFVVKAKSKKIPLGGIPSPST
modifications: synthetic cytochrome P450-BM3 variant WT-AxH (heme)
notes: WT heme domain + C400H
Molecule B1 has a Yield % [1] of 0%.

B2: WT-AxK: WT heme domain + C400K (protein)
chain: B1 chain with H400K
modifications: synthetic cytochrome P450-BM3 variant WT-AxK (heme)
notes: WT heme domain + C400K
B2 showed a Yield % [1] of 0%.

B3: WT-AxN: WT heme domain + C400N (protein)
chain: B1 chain with H400N
modifications: synthetic cytochrome P450-BM3 variant WT-AxN (heme)
notes: WT heme domain + C400N
B3 gave a Yield % [1] of 0%.

B4: WT-AxM: WT heme domain + C400M (protein)
chain: B1 chain with H400M
modifications: synthetic cytochrome P450-BM3 variant WT-AxM (heme)
notes: WT heme domain + C400M
B4 showed a Yield % [1] of 0%.

B5: ABC: P450BM3 variant: C400S (protein, listed as Bacillus megaterium)
chain: TIKEMPQPKTFGELKNLPLLNTDKPVQALMKIADELGEIFKFEAPGRVTRYLSSQRLIKEACDESRFDKNLSQALKFVRDFAGDGLFTSWTHEKNWKKAHNILLPSFSQQAMKGYHAMMVDIAVQLVQKWERLNADEHIEVPEDMTRLTLDTIGLCGFNYRFNSFYRDQPHPFITSMVRALDEAMNKLQRANPDDPAYDENKRQFQEDIKVMNDLVDKIIADRKASGEQSDDLLTHMLNGKDPETGEPLDDENIRYQIITFLIAGHETTSGLLSFALYFLVKNPHVLQKAAEEAARVLVDPVPSYKQVKQLKYVGMVLNEALRLWPTAPAFSLYAKEDTVLGGEYPLEKGDELMVLIPQLHRDKTIWGDDVEEFRPERFENPSAIPQHAFKPFGNGQRASIGQQFALHEATLVLGMMLKHFDFEDHTNYELDIKETLTLKPEGFVVKAKSKKIPLGGIPSPSTEQSAKKVRKKAENAHNTPLLVLYGSNMGTAEGTARDLADIAMSKGFAPQVATLDSHAGNLPREGAVLIVTASYNGHPPDNAKQFVDWLDQASADEVKGVRYSVFGCGDKNWATTYQKVPAFIDETLAAKGAENIADRGEADASDDFEGTYEEWREHMWSDVAAYFNLDIENSEDNKSTLSLQFVDSAADMPLAKMHGAFSTNVVASKELQQPGSARSTRHLEIELPKEASYQEGDHLGVIPRNYEGIVNRVTARFGLDASQQIRLEAEEEKLAHLPLAKTVSVEELLQYVELQDPVTRTQLRAMAAKTVCPPHKVELEALLEKQAYKEQVLAKRLTMLELLEKYPACEMKFSEFIALLPSIRPRYYSISSSPRVDEKQASITVSVVSGEAWSGYGEYKGIASNYLAELQEGDTITCFISTPQSEFTLPKDPETPLIMVGPGTGVAPFRGFVQARKQLKEQGQSLGEAHLYFGCRSPHEDYLYQEELENAQSEGIITLHTAFSRMPNQPKTYVQHVMEQDGKKLIELLDQGAHFYICGDGSQMAPAVEATLMKSYADVHQVSEADARLWLQQLEEKGRYAKDVWAG
modifications: cytochrome P450NADPH-P-450 reductase precursor, cytochrome P450 (BM3), CYP102A1
notes: P450BM3 variant: C400S
With B5 the TTN ([2]; 0.1 mol % catalyst loading (2 μM), 2 mM azide 1, 2 mM NADPH, benzosultam 3) was 32, the “% ee” value ([2]; 0.1 mol % catalyst loading, (S−R)/(S+R), benzosultam 3) was 20% and the “TTN (C—H amination product 3)” value ([2]; catalyst loading 0.5 mol %, NADPH, anaerobic) was 49. For the same molecule, the “Yield sulfonamide (%)” value [3, 4] was 80%, the “Yield sultam (%)” value [3, 4] was 6.7% and the TTN ([3]; anaerobic, added glucose) was 29. The “% ee” value ([3]; (S − R)/(S + R)) was 16%.
